T1: rat CD40 antigen (ACROBiosystems) (rat, UniProt A6JXD6 20-193)
T1 construct: Bought antigen coated on ELISA plates; construct not described
T1 sequence: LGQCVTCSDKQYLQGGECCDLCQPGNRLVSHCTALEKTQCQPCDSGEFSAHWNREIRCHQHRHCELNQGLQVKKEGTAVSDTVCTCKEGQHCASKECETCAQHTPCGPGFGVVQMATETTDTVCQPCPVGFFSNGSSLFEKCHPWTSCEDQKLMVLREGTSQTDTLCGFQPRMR

B1: anti-CD40 monoclonal antibody 1653CD (antibody, human IgG2, kappa, V domains shown)
VH: EVQLVESGGGLVQPGGSLRLSCAASGFTFSDYYMSWVRQAPGKGLEWVGFIRNKANAYTTEYAASVKGRFTISRDNSKSTLYLQMNSLRAEDTAVYYCARYGGLKKGWYFDLWGQGTLVTVSS
VL: DIQMTQSPSSLSASVGDRVTITCRASQGIRNYLNWYQQKPGKAPKLLIYYTSSLQSGVPSRFSGSGSGTDYTLTISSLQPEDFATYYCQQGINLPWTFGGGTKVEIKR
B2: anti-CD40 monoclonal antibody 1609CD (antibody, human IgG2, kappa, V domains shown)
VH: EVQLVESGGGLVQPGGSLRLSCAASGFTFSNYYMSWVRQAPGKGLEWVGFIRNKANGYTTEYAASVKGRFTISRDNSKSTLYLQMNSLRAEDTAVYYCARYGGLKIGWYFDLWGQGTLVTVSS
VL: DIQMTQSPSSLSASVGDRVTITCRASQTISSYLNWYQQKPGKAPKLLIYYTSTLQSGVPSRFSGSGSGTDYTLTISSLQPEDFATYYCQQGNAYPWTFGGGTKVEIKR
B3: anti-CD40 monoclonal antibody 1605CD (antibody, human IgG2, kappa, V domains shown)
VH: EVQLVESGGGLVQPGGSLRLSCAASGFTFSNYYMSWVRQAPGKGLEWVAFIRNKANAYTTEYAASVKGRFTISRDNSKSTLYLQMNSLRAEDTAVYYCARYGGIRVGWYFDLWGQGTLVTVSS
VL: DIQMTQSPSSLSASVGDRVTITCRASQDIRNYLNWYQQKPGKAPKLLIYYTSRLQSGVPSRFSGSGSGTDYTLTISSLQPEDFATYYCQQGQSFPWTFGGGTKVEIKR
B4: anti-CD40 monoclonal antibody 1608CD (antibody, human IgG2, kappa, V domains shown)
VH: EVQLVESGGGLVQPGGSLRLSCAASGFTFSNYYMSWVRQAPGKGLEWVGFIRNKANGYTTEYAASVKGRFTISRDNSKSTLYLQMNRLRAEDTAVYYCARYGGLKVGWYFDLWGQGTLVTVSS
VL: DIQMTQSPSSLSASVGDRVTITCRASQSISNYLAWYQQKPGKAPKLLIYAASSLQSGVPSRFSGSGSGTDYTLTISSLQPEDFATYYCQQGSSYPWTFGGGTKVEIKR
B5: anti-CD40 monoclonal antibody 1606CD (antibody, human IgG2, kappa, V domains shown)
VH: EVQLVESGGGLVQPGGSLRLSCAASGFTFSDYYMSWVRQAPGKGLEWVGFIRNKANGYTTEYAASVKGRFTISRDNSKNTLYLQMNSLRAEDTAVYYCARYGGLRQGWYFDVWGQGTLVTVSS
VL: DIQMTQSPSSLSASVGDRVTITCRASQDIRNYLNWYQQKPGKAPKLLIYYTSRRDSGVPSRFSGSGSGTDYTLTISSLQPEDFATYFCQQGKTLPWTFGGGTKVEIKR
B6: anti-CD40 monoclonal antibody 1652CD (antibody, human IgG2, kappa, V domains shown)
VH: EVQLVESGGGLVQPGGSLRLSCAASGFTFSDYYMSWVRQAPGKGLEWVGFIRNKANAYTTEYAASVKGRFTISRDNSKNTLYLQMNSLRAEDTAVYYCARYGGLRQGWYFDVWGQGTLVTVSS
VL: DIQMTQSPSSLSASVGDRVTITCRASQDIRNYLNWYQQKPGKAPKLLIYYTSRRDSGVPSRFSGSGSGTDYTLTISSLQPEDFATYFCQQGKTLPWTFGGGTKVEIKR
B7: anti-CD40 monoclonal antibody 1655CD (antibody, human IgG2, kappa, V domains shown)
VH: EVQLVESGGGLVQPGGSLRLSCAASGFTFSNYYMSWVRQAPGKGLEWVGFIRNKANAYTTEYAASVKGRFTISRDNSKSTLYLQMNSLRAEDTAVYYCARYGGLKIGWYFDLWGQGTLVTVSS
VL: DIQMTQSPSSLSASVGDRVTITCRASQTISSYLNWYQQKPGKAPKLLIYYTSTLQSGVPSRFSGSGSGTDYTLTISSLQPEDFATYYCQQGNAYPWTFGGGTKVEIKR
B8: anti-CD40 monoclonal antibody 1654CD (antibody, human IgG2, kappa, V domains shown)
VH: EVQLVESGGGLVQPGGSLRLSCAASGFTFSNYYMSWVRQAPGKGLEWVGFIRNKANAYTTEYAASVKGRFTISRDNSKSTLYLQMNRLRAEDTAVYYCARYGGLKVGWYFDLWGQGTLVTVSS
VL: DIQMTQSPSSLSASVGDRVTITCRASQSISNYLAWYQQKPGKAPKLLIYAASSLQSGVPSRFSGSGSGTDYTLTISSLQPEDFATYYCQQGSSYPWTFGGGTKVEIKR
B9: anti-CD40 monoclonal antibody 1607CD (antibody, human IgG2, kappa, V domains shown)
VH: EVQLVESGGGLVQPGGSLRLSCAASGFTFSDYYMSWVRQAPGKGLEWVGFIRNKANGYTTEYAASVKGRFTISRDNSKSTLYLQMNSLRAEDTAVYYCARYGGLKKGWYFDLWGQGTLVTVSS
VL: DIQMTQSPSSLSASVGDRVTITCRASQGIRNYLNWYQQKPGKAPKLLIYYTSSLQSGVPSRFSGSGSGTDYTLTISSLQPEDFATYYCQQGINLPWTFGGGTKVEIKR

Assays:
Experiment in all cases: ELISA, coated antigen
[1] = target: T2, human CD40 antigen (ACROBiosystems) (human, UniProt P25942 21-193)
T2 construct: Bought antigen coated on ELISA plates; construct not described
T2 sequence (P25942 21-193 limits assumed): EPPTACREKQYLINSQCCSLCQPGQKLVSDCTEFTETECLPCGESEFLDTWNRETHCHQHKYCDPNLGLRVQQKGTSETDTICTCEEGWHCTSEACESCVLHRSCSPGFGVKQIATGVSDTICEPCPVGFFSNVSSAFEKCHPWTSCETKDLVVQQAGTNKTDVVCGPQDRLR
Procedure: (§1) The binding ability of monoclonal antibody to human CD40, as well as the species specificity, was detected using an enzyme-linked immunosorbent assay (ELISA). The specific method is as follows: human CD40, cynomolgus CD40, rat CD40, and mouse CD40 antigens (all purchased from ACROBiosystems) were coated with 1 μg/mL carbonate buffer (pH=9.6) in an ELISA plate at 100 μL per well, followed by incubation at 4° C. overnight. The wells were washed 5 times with PBST. 300 μL/well of PBST containing 1% BSA was added to block the wells, and the plate was incubated at room temperature for 1 hour. The wells were washed 5 times with PBST. […] The wells were washed 5 times with PBST. […] The wells were washed 5 times with PBST. Colorimetric substrate TMB was added at 100 μL per well and allowed to develop color at room temperature for 10 minutes, followed by the addition of 1 M sulfuric acid to terminate the reaction. The OD₄₅₀ nm was read on a microplate reader to analyze the results, and the EC₅₀ was calculated using a 4-parameter fit binding curve.

[2] = target: T3, cynomolgus CD40 antigen (ACROBiosystems) (cynomolgus, UniProt G7PG38 21-193)
T3 construct: Bought antigen coated on ELISA plates; construct not described
Procedure: as §1

[3] = target: T1, rat CD40 antigen (ACROBiosystems)
Procedure: as §1

[4] = target: T4, mouse CD40 antigen (ACROBiosystems) (mouse, UniProt P27512 24-193, limits assumed)
T4 construct: Bought antigen coated on ELISA plates; construct not described
T4 sequence (P27512 24-193 limits assumed): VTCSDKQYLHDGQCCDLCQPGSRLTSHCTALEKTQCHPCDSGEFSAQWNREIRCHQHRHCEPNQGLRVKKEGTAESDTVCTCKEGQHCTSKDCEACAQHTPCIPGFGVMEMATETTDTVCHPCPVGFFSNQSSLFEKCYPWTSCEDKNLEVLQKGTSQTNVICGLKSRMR
Procedure: as §1

Binder | EC50 [1] [nM] | EC50 [2] [nM] | binding result [3] | binding result [4]
B1 | 0.02 | 0.018 | no binding | no binding
B2 | 0.022 | 0.02 | no binding | no binding
B3 | 0.022 | 0.021 | no binding | no binding
B4 | 0.022 | 0.021 | no binding | no binding
B5 | 0.024 | 0.02 | no binding | no binding
B6 | 0.022 | 0.018 | no binding | no binding
B7 | 0.024 | 0.009 | no binding | no binding
B8 | 0.014 | 0.015 | no binding | no binding
B9 | 0.021 | 0.017 | no binding | no binding

Source: patent publication US20250376533A1 (FUTUREGEN BIOPHARMACEUTICAL BEIJING, published 2025)
